Biological target: T1, CutR (Mycobacterium sp. strain JC1, UniProt D5G1X9 1-320)
T1 sequence: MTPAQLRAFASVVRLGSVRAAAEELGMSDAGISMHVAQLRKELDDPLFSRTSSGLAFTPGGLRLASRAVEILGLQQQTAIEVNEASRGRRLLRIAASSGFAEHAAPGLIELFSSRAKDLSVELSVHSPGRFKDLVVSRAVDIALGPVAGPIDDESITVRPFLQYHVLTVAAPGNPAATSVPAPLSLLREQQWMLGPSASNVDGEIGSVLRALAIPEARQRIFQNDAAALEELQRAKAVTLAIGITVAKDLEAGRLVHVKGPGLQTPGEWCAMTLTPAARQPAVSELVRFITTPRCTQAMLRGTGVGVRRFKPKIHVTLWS
Assay: EMSA; no CO; 50 mM Tris-HCl pH 8.0, 100 mM NaCl, 40% glycerol, 5 mM DTT, 2 mM EDTA, 4 °C 1 h; 10% native PAGE in 0.5x TBE at 4 °C
Settings: protein: recombinant; tags: C-terminal His6; chain copies: 2; label: 5'-biotin (forward strand); blunt

B1: IR2 (29 bp) (dsDNA)
DNA 1: GGGCCAGTTAAGCGATTCCTTAAGGGGGG
DNA 2: CCCCCCTTAAGGAATCGCTTAACTGGCCC
binding result: binds

From PMC12609908
